Results taken from patent US20220090089A1 (BROAD INSTITUTE, published 2022).

Target: T1, CD4 on primary human peripheral blood mononuclear cells (PBMCs) (human, UniProt P01730 26-458)
T1 construct: whole, on cells
Test: flow cytometry of phage-stained human PBMCs
Method: Harvested cell lines or thawed PBMCs (see PHAGE-ATAC workflow for harvest and thawing protocol) were resuspended in FC buffer (see above) and incubated with respective phage nanobodies for 20 min on a rotator at 4° C. Cells were centrifuged and washed with cold FC buffer twice to remove unbound phages (centrifugation steps all were 350 g, 4 min, 4° C.). […] Cells were incubated for 10 min on ice, washed twice in FC buffer and resuspended in Sytox Blue (Thermo Scientific) containing FC buffer for live/dead discrimination according to manufacturer's instructions. […] Stained cells were analyzed using a CytoFLEX LX Flow Cytometer (Beckman Coulter) at the Broad Institute Flow Cytometry Facility. Flow cytometry data were analyzed using FlowJo software v.10.6.1.

B1: PAC-tagged anti-CD4 nanobody-displaying M13 phage (phagemid pDXinit-CD4Nb-PAC) (VHH)
VHH: EVQLVESGGGSVQPGGSLTLSCGTSGRTFNVMGWFRQAPGKEREFVAAVRWSSTGIYYTQYADSVKSRFTISRDNAKNTVYLEMNSLKPEDTAVYYCAADTYNSNPARWDGYDFWGQGTQVTVSS
notes: also called anti-CD4 pNb; anti-CD4 phage nanobody; not shown: M13 phage coat protein p3, from phagemid pDXinit; 12-amino acid PAC-tag
B1: binds.
